The source of these data is patent publication US20050164936.

One series has as its target T1, MCP-2, P80075.
T1 chain: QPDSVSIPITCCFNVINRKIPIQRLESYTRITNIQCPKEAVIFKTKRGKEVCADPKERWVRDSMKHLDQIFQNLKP

For series [1], the target named is monocyte chemotactic protein-3 (MCP-3), P80098.
For another series, the target named is T2, RANTES(1-68).
T2 chain: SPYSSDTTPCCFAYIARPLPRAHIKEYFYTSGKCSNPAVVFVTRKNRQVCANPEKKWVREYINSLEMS

Sequence of MCP-1, P13500 (P13500 whole entry, looked up): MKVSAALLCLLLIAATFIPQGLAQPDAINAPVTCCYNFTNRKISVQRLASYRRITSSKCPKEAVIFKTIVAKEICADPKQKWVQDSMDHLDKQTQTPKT
Sequence of monocyte chemotactic protein-3 (MCP-3), P80098 (P80098 24-99): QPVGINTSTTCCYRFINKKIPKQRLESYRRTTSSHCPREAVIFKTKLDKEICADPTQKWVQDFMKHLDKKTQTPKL

B1: Human CD26/DPP IV (protein)
chain: MKTPWKVLLGLLGAAALVTIITVPVVLLNKGTDDATADSRKTYTLTDYLKNTYRLKLYSLRWISDHEYLYKQENNILVFNAEYGNSSVFLENSTFDEFGHSINDYSISPDGQFILLEYNYVKQWRHSYTASYDIYDLNKRQLITEERIPNNTQWVTWSPVGHKLAYVWNNDIYVKIEPNLPSYRITWTGKEDIIYNGITDWVYEEEVFSAYSALWWSPNGTFLAYAQFNDTEVPLIEYSFYSDESLQYPKTVRVPYPKAGAVNPTVKFFVVNTDSLSSVTNATSIQITAPASMLIGDHYLCDVTWATQERISLQWLRRIQNYSVMDICDYDESSGRWNCLVARQHIEMSTTGWVGRFRPSEPHFTLDGNSFYKIISNEEGYRHICYFQIDKKDCTFITKGTWEVIGIEALTSDYLYYISNEYKGMPGGRNLYKIQLSDYTKVTCLSCELNPERCQYYSVSFSKEAKYYQLRCSGPGLPLYTLHSSVNDKGLRVLEDNSALDKMLQNVQMPSKKLDFIILNETKFWYQMILPPHFDKSKKYPLLLDVYAGPCSQKADTVFRLNWATYLASTENIIVASFDGRGSGYQGDKIMHAINRRLGTFEVEDQIEAARQFSKMGFVDNKRIAIWGWSYGGYVTSMVLGSGSGVFKCGIAVAPVSRWEYYDSVYTERYMGLPTPEDNLDHYRNSTVMSRAENFKQVEYLLIHGTADDNVHFQQSAQISKALVDVGVDFQAMWYTDEDHGIASSTAHQHIYTHMSHFIKQCFSLP
For the protein B1, the “proteolytic processing (overnight incubation, Edman degradation)” value with MCP-2, P80075 is given as “no NH2-terminal sequence could be detected, indicating that CD26/DPP IV does not alter the NH2-terminus of MCPs”; with MCP-1, P13500 it was “no NH2-terminal sequence could be detected, indicating that CD26/DPP IV does not alter the NH2-terminus of MCPs”; in series [1] it was “no NH2-terminal sequence could be detected, indicating that CD26/DPP IV does not alter the NH2-terminus of MCPs”; in the series with RANTES(1-68) it was “CD26/DPP IV treatment of RANTES resulted in the removal of the NH2-terminal dipeptides”.
